Assays:
[1] = target: Mycobacterium leprae small heat shock protein (sHsp18) (Mycobacterium leprae); assay: SEC; as a1 but after extended dialysis against PBS; data not shown
[2] = target: Mycobacterium leprae small heat shock protein (sHsp18) (Mycobacterium leprae); assay: native gel or EMSA; non-denaturing 7.5% polyacrylamide gel of MagneHis-purified sHsp18, against high molecular weight markers, Coomassie stain
[3] = target: Mycobacterium leprae small heat shock protein (sHsp18) (Mycobacterium leprae); assay: SEC; Sephacryl column; sHsp18 purified by denaturing method, dialysed against 50 mM PBS with 200 mM NaCl, pH 7.2, 4°C, 6 hrs, acetone precipitated, resuspended in PBS

Substance: Mycobacterium leprae small heat shock protein (sHsp18) (natural protein)
- stoichiometry N [1]: 9
- stoichiometry N [2]: 9
- stoichiometry N [3]: 6
